The nature of this series: protease stability score; higher = more stable; yeast display proteolysis, trypsin and chymotrypsin.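 Also: relative to predicted unfolded state with 0 unfolded-like and 1 meaning tenfold more protease.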
“DDMEKETRQFTKLWIEALETGDEDFIKHLVDPHAKITVNGVEYHGMESMKDELKKIKNVRMEIKDVRVFNGVSKIDMESHFDGRTHDTRIEIFVVDGRFKEVRLHIR” yielded a protease stability score of 1.01. Then “DDMERHARKALRVLIESLMTGDEDDIYRMLDPHVRYIFDGVDFHGRERTKETLERLSREFGLSRVHTELKDSKVYDGRLELHLEVNVDGRRRTVIVHVVKIDGKWYVEELRVQ”, with 1.26; and “DDMERHNRWFLRDLIHAIVTGDEELEERLFDPNAKVHIDGVTFIGRELVEFLRKRVDHRRMHVKRTDSQGEYLINHTELILHINGKDVRTDTVWIFHKFNGQWVVHTMEVK”, with 0.815. Under “DDMHEVAKQLMEELVRNWITGNEDNVRHLLDPDVRIIIGDFIFHGRESLELLLHFYNKHIRWTDYKVHDFRIQGDYLHMDTRLIGIIDGRHVILETQMVAVKINGRWRVKSLEVR” stands 2.11; under “DDMHRELRKLAEEIEKLIETGDEDRLRTLLDPHTRVEIGDWSDMGWDAIHKMIRHIRIDSVTIRREHFFNGRVHTDIEVDGTIGDKKDIRHVELEIVIVDGRVKEIKMIYV”, 2.13.

Turning to “DDMQEIVLRIAEELIHRETTGDEEFIKRLLDPRVRLEINGVDSIGMEEFWRFLFEEEHKLGVDHVRFDIKHIRVVDGRAHSIGILNLNINGKEHRFDVRIDIVVIDGRVREVRIEIR”, the protease stability score amounted to 2.51. Then “DDNEELTERFMKHLIRAQQTGDWERLKELFDPNTRLIVGEKHVVGREHFINEWLEHHNKLGIDHSQIELHNLRIINGKAHIDGHFIEEFNGKRIEIRIEVVIVKINGRWLIKEIHFI”, with 1.44; and “DDNEETVERTFKYFIDSLRTGNEEDMYEMADPNVKIEIGDKRLHGREKFRDHMHELSRRADHIQVHLRIHDIQGEFLHLDVELILDVNGKELRIKVHFVAFKFNGRWRLRSMRQT”, with 1.04. Then “DDNTKHAHELVERWRHIIETGDEDIMEEMLDPNVRLLIGDKDLHGRETVEIWLRVLIRRFKNVRLESVHLESVEIQGNKAFSRVRVDLRYNGREDSMDVVVVVYKIDGRWRVHELSVH”, with 1.77; and “DDQDTNSELAVHLWILSMITGDERFLNEYMDPNAKVHVGDKEYHGREAYEFLRHRVDHIRESHIRRVHTQGNKVRVDVEFRIEVDGREINVRTELVLIKINGQWRFTEFTFK”, with 2.22; and “DDQEEFLQRLVEELLRIIETGDWRRFWELLDPNMRVDVDGREIHGMEILVTIIRELWRKLGIDHVHIRLDHVEAFNGQAHAETTVDLRYDGQIIIRESRNHFIIIDGKVEDEKYELR”, with 0.279. Regarding “DDQEEWAKIAMEMILEFLKTGDEELMLELLDPNVRVHLLIDGRHFEDHGRKATRWVIRFIKNVQVKIHNIEYQGDKVHIDVHVDVNGRKTRSREIWTLVDGRIEHVDVQDR”, the protease stability score amounted to 1.2. Under “DDQEKLVRKAWELLVRHLHTGDEEHLDKLIDPNTRMTYNGRETHGMELFSHLMTHLRVKDMDLKEVRIVDGRAILDGHLHGEIDGRETTTRTTYIILKIDGRWFVKSVRFE” stands 1.15; under “DDRDEVVEVASRLWMEIVETGDEDLFIRLLDPRTRIHIGDKTLHGREQVLDFLREHNRNLGIDRVEVRVERTEIQGEKVVVHSINIFNGKEWHVITIAHKINGRWITKEFHLH”, 0.834. Then “DDRDREARKLIQEITHALHTGDEELMEHMLDPSVRTNINGKDIHGMDLFYKWLIELVRRLGADHLNFEVKRVQLYGNKLNTDGHLFVHQGDFTILLNVRWYNLKVNGKWIHESIEIR”, with 1.45; and “DDREEDLHKALHLFRMTMLTGNEDLFRDLADPHTRVSVNGQELIGREHMEHWWKRVDHIEDSRLERVDIVDGVVLVDGRFVGTVNGRRIDTEYTIFAQKVNGQWILHSVKIV”, with 1.19; and “DDREEELQHLMELILFLLVTGNEEIWMRMADPDVKSRISIGDKQETYHGRETVARYMIHERHFYKNIQVKFDDVQVQGDKVIVILTFHWNGREIEVIHTFIVINGKLTSWEVRFIHR”, with 1.42.

“DDREEELRKMTELMLKAEQTGDEDHWMHLADPHVRVIVNGREFIGREEWARHHEEHRRKVKNIRIHVRIRDSEVQGDKLILDTELELRIGDKTIIRDVEINMTIINGRLRSLEIRIK” had a protease stability score of 1.17. The sequence “DDREEHAKELVDLFQKVMLTGDFKTLEELIDPNYRLHVNGQDVHGMERVIRHIFHMRFQDVKVKRIDHQGNKIDMDVRSIVNVDGRLHEHEIQLIALKVDGRWTVKSLEVH” returned a protease stability score of 1.48. Sequence “DDREEKIKRAWETFVHNVRTGDEDSNEELADPNVKVLFNGREFHGMEQLSKFFKHLRVHDFVLKDIRVVGDKVHVEGLVDGEINGKRELTTMHMVFIKFNGRWIIQSVEFK” yielded a protease stability score of 1.53. With “DDREKDSKREVKEFLEMFITGDEERWSKMADPNVRLHFDGVESHGREEALRIMRLLLEQFKNLKVTDVQLTSIEIQGEKALIRTRIHTEVNGKEDSLDVILFATKFDGRWIINSIEIR”, the protease stability score is 1.1. Under “DDREKETQEFFERWVEAFITGDEHDLHEMLDPHARIHLIIGDKKEDLHGRESAVEVMKRIDHKHEFRIRHLWIFDGRIHVDVKLTGHFDGRTYQHDVHINIKIVDGKIHSIQIEWR” stands 2.22; under “DDREKFWKELAKEWFKSLITGDEDSLRKLLDPDVRTIVGDWHIHGMEEVLKFWLELRISDHDSKRIIVINGVNLNDIRSNGNVNGVERETRVELIIEVVDGRVRRVEFRMK”, 2.01. Under “DDREKLWHRLVELEKELWLTGDFEDFHSLADPNVQLIVHFDGQEVHYHGRESVTMALKILREQLGADHFEPKSVHYQGNKMQTSMILFVNGREFEFRLTLFVIDGRLKSHHIEWK” stands 1.48. Then “DDREKYLTKLMELFIEHWRTGDEEAFLEYFDPHVRIEHIFNGQETRRHGRELFSILLTHEWLFFKNVRIHWKRSEVQGEKTVIHMELHVGDKSLKVRIHLDVVDGRVRSVNIEIE”, with 0.548.

Take “DDRERATRELLKLLWDAMKTGDEELFYKLADPDTRMIINGRELHGMEEVSRILLELLTHMRLKNITIRDIDVQGDKVDVHGELHGEVGDKSHTFETHIIILKVNGKWVLRSYIIR”: the protease stability score is 1.55. In the case of “DDRERDLRELFKRLHEVLETGNEEEMTELIDPHARRTVGDKKIHGRELIAKHLVHEVLRYDHWHLEMHDWRFQGEKIELHGNFRIEVDGKQIVIDTRLTATKVDGRWRITEIRII”, the protease stability score stood at 0.743. In the case of “DDRERDSREAQEILREILLTGDFKTLYELADPHYRHNWDGRTIHGMETIVKLFLDLGMEIRDMRFRHLEIQGDFIHLDVDINGRINGKEKNVKIRVHARKIDGRWVLHSSERD”, the protease stability score was determined as 1.38. Regarding “DDRERERHRFLRELHESLETGDERELTRMLDPHARWVVGDKQHHGRETLTKFVSEVALRADHFHIEISRVREQGEFIDIDVRVILIIGDKVITIDQRLINLKVDGRWFLHERIVH”, the protease stability score was determined as 1.05.

“DDRERESEEALRLFIETLETGDEHWLKRLMDPNARLHQGEKTIHGMDIFSTWVVEARLKHYHLERVHIQGDKMDVESHVDGHVNGQRLKVQLIFHSLKIDGRWLVKHIIVH” displayed a protease stability score of 1.4. In turn, “DDRERESKEAVEFFLHAVDTGDFDRIREMLDPHMRVEIDGQEFHGRERALDLIHKEMFDLGVDRIRIEIHDMELVDGRVEVDVHVDVNGRIIRSEYIMKKIDGRWRIHSIKRR” returned a protease stability score of 1.98. “DDRERLTKLMSDDFIFSMLTGDEHFMHELIDPHARFLFNGQVHHGWKTMEFWREHLGIDNIHLQIRISDLEIQGDKATVRIDGEVKQGDKSFRTRFIIKVDKIDGRWVIHELRIIVL” yielded a protease stability score of 1.07. Under “DDRERQAESMMHLWLEVLLTGDEDRLMKLADPNTRHHVNGVDAHGRENIKRVAKEFDEQMRIHRVEIRQVRIIGDKTEVDGRVDVEVNGRRRDTETHLRVIVIDGRIHEVHLIIR” stands 0.725.

Regarding “DDRESIAEAVIRHMVEDFRTGNEDNMKRLFDPNTQLRYGDKTHHGWEDVVELLYHDIKHFGIKHVSVDRISVIGEKIHIDMRVEVGDKELTLHFTVDKINGKWKFESVERR”, the protease stability score came out at 0.849. “DDRHEENKEITRRQFELFETGDEEILHHLADPHVRLRIDGQHNHGREELERSLRELRKELGANVLILRRIRVIGDKMEVEGEFDYNGRNFHATFRFNVIDGRLHSMSIEIR” came in with a protease stability score of 0.832. Then “DDRIRQVVEEWWKAVETNDPDKAKENVDKDVRVEVGDKQFRGSETLEKRIRDEKDHARVVVRMQSVSVHGDTVDVTYNVVVEVNGNPLRFKAQAFFRARNGRMQSIQFSFSKEDKKRVDG”, with 1.78; and “DDRKEMSEEASEIFLHLLATGDERTERKLLDPHVRLIIGDKHLHGREEFVRFKHEEMRDLGVTNVEVREKDVKVYDGKIELHGHFNVNGKWVEIHVIAEKFNGRWILKRVNFH”, with 0.875. Then “DDRKKEAHELFEFLLDVFRTGDEKSTEELLDPHTRNVIGDKHYHGRDVWVTFMKKFKNAKVHFNHLEVQGDKVTFDITFEIGDKTHRMRFFLEKYDGRWFIKEIQVD”, with 1.44; and “DDRKKEAQRILELFLKIWETGDEEELLKLLDPNVKLHIGDKNIHGMEEATRILTENVREIRTHIVHKRVHIQGDKVELEGELRIHVNGREESNRVHYELIVVNGKVKAIHVHLE”, with 1.16. Under “DDRSEHAIHAFYEWWERFLTGDEKRLYELADPNTRLHVNGQRIHGMEEIMERILDLLKRVKNMRVDFDVRDVELQGDKIILRIEIILKYNGQKVRIDVHIISRKINGRWFLEQEREE” stands 0.558; under “DDRYRLVEHMSRHFFENWLTGDFDRLVELADPTVRSHFEYGDKEILNIGMEEHVKMERHWREKMGANHLFLDDVRIQGNKAHIHGQLDVGDKHNRARLELNIVDGRIKEIYIEIR”, 0.018; under “DDSAKWTEIALKIKSHDSDTGNEEKIRRLLDPNVRIEINGQEIHGRDKISKWLSEIRIQIEHVDTERYELQGNKAIVDGRMHIKVSYGDKEMHFDIKFEIEVHKVDGQWLIHSERII”, 0.754. “DDSDEHTKRATDELRHNLRTGDEERILKLVDPNARIDINGVKVIGWHMVEELVRKFWEEMRVEELEIHDMKVYGDKAIVDGYVEQRQGNKFIYIKTEIIKVKIDGRWILTELRFR” showed a protease stability score of 0.57. Under “DDSDQANKIMLEVLRRKLDTGDEDSIRKLADPHARIVIGDKTIHGMDEHTNELRHMLELWGVDRVELHIRHVEKQGDKLRVDGELHFNGVSVRVIFLHEKINGRWFMRHTEIR” stands 0.984; under “DDSEEDALRILELLSDSMETGNWRLVSELLDPHVRLEVGDKTWVGMEEMKRLANQIRIHVHRVKFHHIDNFNGRVRVDGHIHGEIIVGDKIYRFRTRIEIDAVKINGQWVIEEMRIG”, 1.61. Under “DDSEEHAEEVVRELSESLRTGDEKSVDRLLDPNVKFIINGVEYVGRELFLELFKKTLEEIRIESIEVTHIDIQGEKVRLETKEHAIINGKRFQFKTEVIMRKVNGRWEIQELRFE” stands 1.98; under “DDSEHWARRFIHLLKRSLETGDEHLNKELADPHARIEVNGRELHGREDFSETLVRMGFNHVHITDFDVQGDKIELHIETDVGDKKIQVEFIVEKVNGRWLNRSMHIRIH”, 0.832.

The values are drawn from the NTF2 design screens of Basanta et al. (2020).
